From the supplement of paper PMC10567573

B1: KRT13 (parent)
chain: TSSASVTTTSNASGRRTSDVRRP
B2: ZNF449 (parent)
chain: HTGERPYECTVCKKRFTRRSHLIG

Variants of: B1
Assay: protein stability index of a GFP-peptide fusion (GPS, HEK-293T) (PSI 1-6); higher = more stable
Details: c terminus: native
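Note: lentivirally expressed fusions sorted by FACS into six bins by GFP to DsRed ratio, PSI derived from sequencing read proportions per bin multiplied by bin number.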

Protein stability index, by site and new letter:
D19: R 2.08, T 2.69, Y 1.92, P 2.86, S 2.07, V 3.02, N 2.26
R21: Y 5.15, T 5.55, N 5.24, L 4.89, P 5.33, M 5.27, F 5.07, D 5.12, V 4.97, H 5.55, I 4.91, C 4.97, E 5.51, Q 5.75, A 5.32, W 5.35, K 5.25, S 5.41
V20: A 1.63, P 2.31, I 4.34, Q 2.06, N 2.13, K 2.73, D 1.76, T 4.51, H 2.51, C 2.16, E 2.52, Y 2.38, G 2.03
P23: G 3.15, H 1.77, C 2.42, K 4.84, N 2.27, T 4.53, M 4.45, L 4.45, R 3.9, F 4.92, S 2.36, Q 3.43, E 1.59, W 4.6, Y 4.86, I 4.47
R22: S 1.88, E 1.75, V 2.08, K 2.13, W 2.04, N 3.07, T 1.84, Q 2.71, M 3.05, Y 1.75, I 2.77, P 2.62, L 1.38, D 1.93, H 3.45, A 2.49

Variants of: B2
Assay: as above
Details: c terminus: a fixed tail appended

Protein stability index of substitutions, site by site:
G3: V 1.82, L 3.83, Y 1.9, R 1.73, D 2.44, N 1.85, P 2.52, H 3.28, A 2.63, I 2.39, M 2.38, C 3.04, T 2.12, W 2.43, F 2.06, K 2.2, E 2.26, Q 3.59, S 2.33
T2: W 2.13, K 2.4, D 2.23, C 1.42, Y 1.9, E 2.94, G 2.55, M 1.76, L 2.45, P 1.8, A 2.85, V 1.97, F 2.08, Q 2.24, N 2.13, H 3.18, I 1.47, S 1.83, R 2.12
H1: C 2.48, G 1.83, I 1.74, L 1.79, S 1.85, V 2.39, F 1.78, E 2.6, P 2.59, W 2, Y 2.98, M 2.96, K 2.6, D 2.19, T 1.7, A 2.47
E4: K 1.7, D 1.82, Q 2.66, L 1.5, H 2.17, S 2.53, G 1.55, Y 1.58, P 2.04, M 2.24, R 1.96, I 1.66, T 2.76, C 2.26, F 1.9, N 2.15, V 2.02, A 1.42, W 1.8
P6: D 2.52, E 2.34, G 2.77, H 2.64, A 2.67, F 1.75
R5: L 2.09, P 2.01, W 2, C 3.5, Y 2.82, I 2.19, G 2.24, M 2.24, V 2.07, S 2.7, Q 2.23, K 1.99, F 1.76, T 3, N 1.64, A 1.96, H 2.67, E 2.33
